For two substances, activity (units per g wet cells) and activity (% of DNA resistant to SapI) results are on record in US5663067.

The subject of data set [1] is T1, SapI restriction endonuclease (recombinant) (Saccharopolyspora sp.).
T1 sequence: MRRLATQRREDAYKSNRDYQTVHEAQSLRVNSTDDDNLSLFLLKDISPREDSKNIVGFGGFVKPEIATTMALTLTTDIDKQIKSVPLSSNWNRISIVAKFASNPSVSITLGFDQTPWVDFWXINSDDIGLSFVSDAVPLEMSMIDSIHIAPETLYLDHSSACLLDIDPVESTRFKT
The data set can be described thus: cleavage_in_vitro. Conditions: supernatant of lysate assayed on lambda DNA; purified enzyme also assayed on lambda DNA.

For data set [2], the system named is T2, SapI M1 methylase (Saccharopolyspora sp.).
T2 sequence: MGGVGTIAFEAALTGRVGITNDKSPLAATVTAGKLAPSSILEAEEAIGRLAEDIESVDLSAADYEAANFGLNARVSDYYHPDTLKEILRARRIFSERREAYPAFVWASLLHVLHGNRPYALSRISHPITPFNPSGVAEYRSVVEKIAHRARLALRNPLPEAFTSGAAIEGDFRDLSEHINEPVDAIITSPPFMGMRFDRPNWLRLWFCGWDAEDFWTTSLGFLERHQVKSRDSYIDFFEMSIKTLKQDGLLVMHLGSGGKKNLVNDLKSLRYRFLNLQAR
Nature of the data set: cell_activity. Conditions: M1 and M2 co-expressed in E. coli from pACYC184-SapIM1-M2; SapI site protection.

The test system of data set [3] is T3, SapI M2 methylase (Saccharopolyspora sp.).
T3 sequence: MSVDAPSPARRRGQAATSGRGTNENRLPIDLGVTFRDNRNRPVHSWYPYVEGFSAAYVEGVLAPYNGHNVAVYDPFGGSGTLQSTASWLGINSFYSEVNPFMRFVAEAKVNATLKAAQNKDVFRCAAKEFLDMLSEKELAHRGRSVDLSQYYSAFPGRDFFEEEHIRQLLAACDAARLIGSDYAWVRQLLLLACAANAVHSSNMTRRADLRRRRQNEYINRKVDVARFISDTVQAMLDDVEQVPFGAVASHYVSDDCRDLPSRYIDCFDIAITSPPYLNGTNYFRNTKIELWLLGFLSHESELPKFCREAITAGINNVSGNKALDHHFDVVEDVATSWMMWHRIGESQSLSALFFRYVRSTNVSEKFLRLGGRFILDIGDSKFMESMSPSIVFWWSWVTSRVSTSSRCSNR
Nature of the data set: cell_activity. Conditions: M1 and M2 co-expressed in E. coli from pACYC184-SapIM1-M2; SapI site protection.

As for lambda DNA, in data set [1], the activity (units per g wet cells) came out at 20000.
Turning to pUC19 plasmid DNA (one SapI site), the activity (% of DNA resistant to SapI) in data set [2] and in data set [3] was 70 throughout.
